Test results reported in patent US20220041736A1 (Amgen, published 2022).
Positions count from the first letter of the chain named. Numbers in names are those of the source. Values belong to the binder of their own block, whether it stands above or below them.

What was measured:
[1] = molecular target: T1, 1-27 CD3-Fc (N-terminal amino acids 1-27 of the mature human CD3 epsilon chain fused to the hinge and Fc … (human)); experiment: ELISA, captured 1-27 CD3-Fc, crude periplasmic scFv
T1 construct: Entry 229 is printed without the leader peptide; also called 27 aa huCD3ε; 1-27 CD3ε-Fc

[2] = molecular target: T2, squirrel monkey 1-27 CD3ε-EpCAM (Saimiri sciureus CD3 epsilon 1-27 / …); experiment: FACS, transfected 293-HEK cells
T2 construct: Transmembrane fusion on 293-HEK or CHO cells; also called 1-27 CD3-EpCAM comprising the squirrel monkey 27 mer
T2 chain: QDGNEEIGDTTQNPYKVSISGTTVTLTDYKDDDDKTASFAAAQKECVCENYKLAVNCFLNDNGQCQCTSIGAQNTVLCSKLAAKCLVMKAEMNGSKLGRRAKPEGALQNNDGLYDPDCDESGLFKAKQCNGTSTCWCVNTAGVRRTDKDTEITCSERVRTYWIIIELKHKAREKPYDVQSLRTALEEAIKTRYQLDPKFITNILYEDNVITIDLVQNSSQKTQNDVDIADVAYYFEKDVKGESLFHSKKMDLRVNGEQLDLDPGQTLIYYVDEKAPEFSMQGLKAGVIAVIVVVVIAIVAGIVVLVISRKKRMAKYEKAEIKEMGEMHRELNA

marmoset 1-27 CD3ε-EpCAM = molecular target: T3, marmoset 1-27 CD3ε-EpCAM (Callithrix jacchus CD3 epsilon 1-27 / …); experiment: FACS, transfected 293-HEK cells
T3 construct: Transmembrane fusion on 293-HEK or CHO cells; also called 1-27 CD3-EpCAM comprising the marmoset 27 mer
T3 chain: T2 chain with I7M

[3] = molecular target: T4, human 1-27 CD3ε-EpCAM (1-27 N-terminal amino acids of human CD3 epsilon, Flag tag, cynomolgus EpCAM) (human CD3 epsilon 1-27 / cynomolgus …); experiment: FACS, transfected 293-HEK cells
T4 construct: also called 1-27 CD3-EpCAM comprising the human 27 mer
T4 chain: T2 chain with I7M, D9G, T10I, N13T, T25I

tamarin 1-27 CD3ε-EpCAM = molecular target: T5, tamarin 1-27 CD3ε-EpCAM (Saguinus oedipus CD3 epsilon 1-27 / …); experiment: FACS, transfected 293-HEK cells
T5 construct: Transmembrane fusion on 293-HEK or CHO cells; also called 1-27 CD3-EpCAM comprising the tamarin 27 mer
T5 chain: T2 chain with I7M

swine 1-27 CD3ε-EpCAM = molecular target: T6, swine 1-27 CD3ε-EpCAM (Sus scrofa CD3 epsilon 1-27 / …); experiment: FACS, transfected 293-HEK cells, crude periplasmic scFv
T6 construct: Negative control construct on 293-HEK or CHO cells; also called 1-27 CD3-EpCAM comprising the swine 27 mer
T6 chain: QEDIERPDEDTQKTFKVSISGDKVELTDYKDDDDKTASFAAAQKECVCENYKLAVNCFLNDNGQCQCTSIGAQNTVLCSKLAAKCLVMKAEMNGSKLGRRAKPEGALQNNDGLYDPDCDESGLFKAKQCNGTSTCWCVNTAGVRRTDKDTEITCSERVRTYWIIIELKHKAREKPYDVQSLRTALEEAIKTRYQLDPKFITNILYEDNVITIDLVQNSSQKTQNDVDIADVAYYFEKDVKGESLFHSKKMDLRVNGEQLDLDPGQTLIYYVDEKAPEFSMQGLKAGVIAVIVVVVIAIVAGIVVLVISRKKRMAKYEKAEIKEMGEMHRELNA

[4] = molecular target: T7, human 1-27 CD3 BSA conjugate (peptide of the N-terminal amino acids 1-27 of human CD3 epsilon plus C-terminal … (human, printed as acetyl-QDGNEEMGGITQTPYKVSISGTTVILTC; C-terminal Cys 28 coupled to maleimide activated BSA); experiment: ELISA, immobilized antigen, crude periplasmic preparation
T7 construct: also called peptide-BSA conjugate
T7 peptide: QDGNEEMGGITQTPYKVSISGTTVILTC

[5] = molecular target: T1, 1-27 CD3-Fc (N-terminal amino acids …); experiment: as above
[6] = molecular target: T8, BSA (bovine serum albumin, blocking agent) (bovine, UniProt P02769 25-607); experiment: ELISA, blocked wells without antigen, crude periplasmic preparation
T8 construct: also called bovine Albumin, fraction V
T8 sequence (P02769 25-607 limits assumed): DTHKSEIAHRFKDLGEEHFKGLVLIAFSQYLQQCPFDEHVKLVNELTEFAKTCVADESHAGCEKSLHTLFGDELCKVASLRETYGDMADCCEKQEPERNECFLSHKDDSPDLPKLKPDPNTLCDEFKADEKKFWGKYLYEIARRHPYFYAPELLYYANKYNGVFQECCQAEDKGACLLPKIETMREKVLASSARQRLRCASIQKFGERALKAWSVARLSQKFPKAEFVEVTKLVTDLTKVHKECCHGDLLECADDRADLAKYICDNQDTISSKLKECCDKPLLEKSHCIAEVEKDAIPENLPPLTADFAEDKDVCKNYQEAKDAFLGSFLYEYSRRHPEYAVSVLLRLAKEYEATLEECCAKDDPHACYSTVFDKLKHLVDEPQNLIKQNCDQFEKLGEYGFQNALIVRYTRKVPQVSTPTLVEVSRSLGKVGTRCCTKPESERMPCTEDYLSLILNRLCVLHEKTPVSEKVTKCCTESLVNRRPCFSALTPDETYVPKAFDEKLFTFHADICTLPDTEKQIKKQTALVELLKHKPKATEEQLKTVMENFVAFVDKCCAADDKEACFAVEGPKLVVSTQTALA

binding result [1]: binds
B1: A2J HLP single-chain antibody (scFv)
scFv: EVQLLESGGGLVQPGGSLKLSCAASGFTFNVYAMNWVRQAPGKGLEWVARIRSKYNNYATYYADSVKKRFTISRDDSKNTAYLQMNNLKTEDTAVYYCVRHGNFGNSYLSWWAYWGQGTLVTVSSGGGGSGGGGSGGGGSELVVTQEPSLTVSPGGTVTLTCRSSTGAVTSGYYPNWVQQKPGQAPRGLIGATDMRPSGTPARFSGSLLGGKAALTLSGVQPEDEAEYYCALWYSNRWVFGGGTKLTVLTGDYKDDDDKHHHHHH
notes: Crude periplasmic preparation from pComb3H5BFlag/His; also called VH-VL-P of A2J

binding result [1]: binds | binding result [2]: binds | binding result (marmoset 1-27 CD3ε-EpCAM): binds | binding result [3]: binds | binding result (tamarin 1-27 CD3ε-EpCAM): binds | binding result (swine 1-27 CD3ε-EpCAM): no binding
B2: E2M HLP single-chain antibody (scFv)
scFv: B1 scFv with V31G, K68E, G102R, W112F
notes: Crude periplasmic preparation; also called VH-VL-P of E2M

binding result [4]: binds | binding result [5]: binds | binding result [6]: no binding
B3: anti-CD3 single domain antibody CD3 3D-H11 (VHH)
VHH: EVQLVESGGGLVQPGGSLRLSCAASGFTFDDYGMSWVRQAPGKWLEWVSDISWNGGSTYYADSVKGRFTISRDNAENTLYLQMNSLKPDDTAVYYCAKMGEGGWGANDYWGQGTQVTVSS
notes: Crude periplasmic preparation from pComb3H5BFlag/His; also called V CD3 3D-H11
